From patent publication US20230060095A1 (Regeneron, published 2023)
Substitutions are numbered along the chain they refer to. Blank lines part the entries; values can stand above or below the binder they belong to.

Tests used:
[1] = biological target: T1, PRAME peptide on HLA-A*02:01 (human); assay: multimer staining
T1 peptide: RLDQLLRHV

[2] = biological target: T2, soluble HLA-A2:PRAME (312-320) tetramer (human); assay: flow cytometry, soluble pMHC tetramer on CHO cells expressing the TCR
T2 construct: Commercial tetramer (MBL International); construct limits, biotin tag and streptavidin/fluorophore not described; also called PRAME/HLA tetramer reagent

B2: PN46857 (TCR, V domains shown)
V domain 1: AQKVTQATREISVVEKEDVTLDCVYETRDTTYYLFWYKQPPSGELVFLIRRNSFDEQNEISGRYSWNFQKSTSSFNFTITASQVVDSAVYFCALSEGYGNKLVFGAGTILRVKS
V domain 2: NAGVMQNPRHLVRRRGQEARLRCSPMKGHSHVYWYRQLPEEGLKFMVYLQKENIIDESGMPKERFSAEFPKEGPSILRIQQVVRGDSAAYFCASSHRDDTEAFFGQGTRLTVV
notes: stained with anti-mouse TCR constant region antibody H57-597) and full-length chains were expressed on CHO cells
binding result [1]: recognises
Cell Frequency ≥1000 MFI, ≥1% (% tetramer positive cells in the Ag+ gate) [2]: 53.9%

B4: PN46777 (TCR, V domains shown)
V domain 1: AQTVTQSQPEMSVQEAETVTLSCTYDTSENNYYLFWYKQPPSRQMILVIRQEAYKQQNATENRFSVNFQKAAKSFSLKISDSQLGDTAMYFCALMEYGNKLVFGAGTILRVKS
V domain 2: DAGITQSPRYKITETGRQVTLMCHQTWSHSYMFWYRQDLGHGLRLIYYSAAADITDKGEVPDGYVVSRSKTENFPLTLESATRSQTSVYFCASSDGTGYYGYTFGSGTRLTVV
notes: as for B2
binding result [1]: recognises
Cell Frequency ≥1000 MFI, ≥1% (% tetramer positive cells in the Ag+ gate) [2]: 98.9%

B5: PN46738 (TCR, V domains shown)
V domain 1: AQTVTQSQPEMSVQEAETVTLSCTYDTSENNYYLFWYKQPPSRQMILVIRQEAYKQQNATENRFSVNFQKAAKSFSLKISDSQLGDTAMYFCAFGMYSGGGADGLTFGKGTHLIIQP
V domain 2: B4 V domain 2
notes: as for B2
binding result [1]: recognises
Cell Frequency ≥1000 MFI, ≥1% (% tetramer positive cells in the Ag+ gate) [2]: 23%

B6: PN46797 (TCR, V domains shown)
V domain 1: B4 V domain 1 with G98E
V domain 2: B4 V domain 2
notes: as for B2
binding result [1]: recognises
Cell Frequency ≥1000 MFI, ≥1% (% tetramer positive cells in the Ag+ gate) [2]: 57.3%

B7: PN46733 (TCR, V domains shown)
V domain 1: GESVGLHLPTLSVQEGDNSIINCAYSNSASDYFIWYKQESGKGPQFIIDIRSNMDKRQGQRVTVLLNKTVKHLSLQIAATQPGDSAVYFCAENNYGQNFVFGPGTRLSVLP
V domain 2: NAGVTQTPKFQVLKTGQSMTLQCAQDMNHNSMYWYRQDPGMGLRLIYYSASEGTTDKGEVPNGYNVSRLNKREFSLRLESAAPSQTSVYFCASSDWGQGVEAFFGQGTRLTVV
notes: as for B2
binding result [1]: recognises
Cell Frequency ≥1000 MFI, ≥1% (% tetramer positive cells in the Ag+ gate) [2]: 87.9%

B9: PN46853 (TCR, V domains shown)
V domain 1: ILNVEQSPQSLHVQEGDSTNFTCSFPSSNFYALHWYRWETAKSPEALFVMTLNGDEKKKGRISATLNTKEGYSYLYIKGSQPEDSATYLCACGGSGNTGKLIFGQGTTLQVKP
V domain 2: AAGVIQSPRHLIKEKRETATLKCYPIPRHDTVYWYQQGPGQDPQFLISFYEKMQSDKGSIPDRFSAQQFSDYHSELNMSSLELGDSALYFCASSSQGQPQHFGDGTRLSIL
notes: as for B2
binding result [1]: recognises
Cell Frequency ≥1000 MFI, ≥1% (% tetramer positive cells in the Ag+ gate) [2]: 35.4%

B10: PN46731 (TCR, V domains shown)
V domain 1: GENVEQHPSTLSVQEGDSAVIKCTYSDSASNYFPWYKQELGKRPQLIIDIRSNVGEKKDQRIAVTLNKTAKHFSLHITETQPEDSAVYFCAAWNYGQNFVFGPGTRLSVLP
V domain 2: B9 V domain 2 with S95L, Q96E, Q98S, P99E, Q100A, H101F, D104Q, S109T, I110V, L111V
notes: as for B2
binding result [1]: recognises
Cell Frequency ≥1000 MFI, ≥1% (% tetramer positive cells in the Ag+ gate) [2]: 15.7%

B12: PN46735 (TCR, V domains shown)
V domain 1: DAKTTQPNSMESNEEEPVHLPCNHSTISGTDYIHWYRQLPSQGPEYVIHGLTSNVNNRMASLAIAEDRKSSTLILHRATLRDAAVYYCILREYMYSGGGADGLTFGKGTHLIIQP
V domain 2: DAGVTQSPTHLIKTRGQQVTLRCSPISGHKSVSWYQQVLGQGPQFIFQYYEKEERGRGNFPDRFSARQFPNYSSELNVNALLLGDSALYLCASSFQAGVNYGYTFGSGTRLTVV
notes: as for B2
binding result [1]: recognises
Cell Frequency ≥1000 MFI, ≥1% (% tetramer positive cells in the Ag+ gate) [2]: 17.9%

B14: PN46723 (TCR, V domains shown)
V domain 1: EDQVTQSPEALRLQEGESSSLNCSYTVSGLRGLFWYRQDPGKGPEFLFTLYSAGEEKEKERLKATLTKKESFLHITAPKPEDSATYLCAVQEDGGSQGNLIFGKGTKLSVKP
V domain 2: DAGVTQSPTHLIKTRGQQVTLRCSPISGHKSVSWYQQVLGQGPQFIFQYYEKEERGRGNFPDRFSARQFPNYSSELNVNALLLGDSALYLCASSRDINEKLFFGSGTQLSVL
notes: as for B2
binding result [1]: recognises
Cell Frequency ≥1000 MFI, ≥1% (% tetramer positive cells in the Ag+ gate) [2]: 72.5%

B15: PN46678 (TCR, V domains shown)
V domain 1: AQKVTQAQPEISVVEKEDVTLDCVYETRDTTYYLFWYKQPPSGELVFLIRRNSFDEQNEISGRYSWNFQKSTSSFNFTITASQVVDSAVYFCALSEFDRGSTLGRLYFGRGTQLTVWP
V domain 2: B14 V domain 2
notes: as for B2
binding result [1]: recognises
Cell Frequency ≥1000 MFI, ≥1% (% tetramer positive cells in the Ag+ gate) [2]: 11%

B16: PN46714 (TCR, V domains shown)
V domain 1: B14 V domain 1 with E92A
V domain 2: B14 V domain 2 with R95L, E99S, K100P, F102H, S105N, Q108R, S110T, L112T
notes: as for B2
binding result [1]: recognises
Cell Frequency ≥1000 MFI, ≥1% (% tetramer positive cells in the Ag+ gate) [2]: 62.1%

Continued, values first:

binding result [1]: recognises
Cell Frequency ≥1000 MFI, ≥1% (% tetramer positive cells in the Ag+ gate) [2]: 64.7%
B1: PN46883 (TCR, V domains shown)
V domain 1: AQKVTQAQTEISVVEKEDVTLDCVYETRDTTYYLFWYKQPPSGELVFLIRRNSFDEQNEISGRYSWNFQKSTSSFNFTITASQVVDSAVYFCALSVSSYNTDKLIFGTGTRLQVFP
V domain 2: B2 V domain 2
notes: as for B2

binding result [1]: recognises
Cell Frequency ≥1000 MFI, ≥1% (% tetramer positive cells in the Ag+ gate) [2]: 31.9%
B3: PN46880 (TCR, V domains shown)
V domain 1: AQRVTQPEKLLSVFKGAPVELKCNYSYSGSPELFWYVQYSRQRLQLLLRHISRESIKGFTADLNKGETSFHLKKPFAQEEDSAMYYCALSGASGGSYIPTFGRGTSLIVHP
V domain 2: B2 V domain 2
notes: as for B2

binding result [1]: recognises
Cell Frequency ≥1000 MFI, ≥1% (% tetramer positive cells in the Ag+ gate) [2]: 44.7%
B8: PN46871 (TCR, V domains shown)
V domain 1: KQEVTQIPAALSVPEGENLVLNCSFTDSAIYNLQWFRQDPGKGLTSLLLIQSSQREQTSGRLNASLDKSSGRSTLYIAASQPGDSATYLCAVEGTTDSWGKFQFGAGTQVVVTP
V domain 2: B9 V domain 2
notes: as for B2

binding result [1]: recognises
Cell Frequency ≥1000 MFI, ≥1% (% tetramer positive cells in the Ag+ gate) [2]: 92.5%
B11: PN46889 (TCR, V domains shown)
V domain 1: QKEVEQNSGPLSVPEGAIASLNCTYSDRGSQSFFWYRQYSGKSPELIMSIYSNGDKEDGRFTAQLNKASQYVSLLIRDSQPSDSATYLCAVNIPNSGYSTLTFGKGTMLLVSP
V domain 2: NAGVTQTPKFRVLKTGQSMTLLCAQDMNHEYMYWYRQDPGMGLRLIHYSVGEGTTAKGEVPDGYNVSRLKKQNFLLGLESAAPSQTSVYFCASSYWEGTEAFFGQGTRLTVV
notes: as for B2

binding result [1]: recognises
Cell Frequency ≥1000 MFI, ≥1% (% tetramer positive cells in the Ag+ gate) [2]: 11.5%
B13: PN46914 (TCR, V domains shown)
V domain 1: AQKVTQAQPEISVVEKEDVTLDCVYETRDTTYYLFWYKQPPSGELVFLIRRNSFDEQNEISGRYSWNFQKSTSSFNFTITASQVVDSAVYFCALSEGYNQGGKLIFGQGTELSVKP
V domain 2: DVKVTQSSRYLVKRTGEKVFLECVQDMDHENMFWYRQDPGLGLRLIYFSYDVKMKEKGDIPEGYSVSREKKERFSLILESASTNQTSMYLCASGADSNQPQHFGDGTRLSIL
notes: as for B2
